# Laboratory results: patent US20130260436A1, “Methods of Identifying and Characterizing Natural Product Gene Clusters” (Victoria LInk Limited, priority 2010, published 2013)
# B1: The peptide carrier protein of BpsA (bPCP), purified recombinant His6 tagged (protein)
# chain: FVAPRTETEKEIAAVWEKALRRENASVQDDFFESGGNSLIAVGLVRELNARLGVSLPLQSVLESPTIEKLARRLE
# What was measured:
# PcpS = PcpS (Pseudomonas aeruginosa, UniProt Q9I4H2); test: Carrier protein (CoA) competition assay with PcpS; type: biochemical, P. aeruginosa PAO1; conditions: competition with BpsA for limited CoA (250 nM), read-out: IC50 for carrier protein mediated inhibition of BpsA activation
# Description: (§1) Another aspect of the invention described is a CoA competition assay for PPTase characterization. Assays of this type consist of two phases. In the first phase is the competition phase in which apo-BpsA and a purified carrier protein (CP) to be characterized compete for a limited pool of CoA which is attached to either the CP to be characterized or apo-BpsA by a PPTase. During this first phase, only the substrates necessary for phosphopantetheinylation are present. Following the competition phase, the production phase is initiated. In the production phase, the substrates required for pigment synthesis by holo-BpsA (L-gln and ATP) are added to reaction vessels and the velocity (A590/s) of the resulting reaction measured. […]
# (§2) One limitation of the approach outlined above for determination of PPTase kinetic parameters is that it only provides information about a PPTase of interest with a single carrier protein substrate (that of BpsA). […] Four carrier proteins were employed in assessed using this assay, these were: The peptide carrier protein of BpsA (bPCP), the peptide carrier protein of the first module of the Pseudomonas aeruginosa NRPS PvdD (pPCP), the peptide carrier protein of the Microcysitis aeruginosa NRPS/PKS MycG (mPCP) and the aryl carrier protein from Nostoc punctiforme protein HetM (npArCP). […]
# Sfp = Sfp (Bacillus spizizenii, UniProt G4NQW2); test: Carrier protein (CoA) competition assay with Sfp; type: biochemical, B. subtilis subsp. spizizenii ATCC6633; conditions: competition with BpsA for limited CoA (250 nM), read-out: IC50 for carrier protein mediated inhibition of BpsA activation
# Description: as §1, §2
# [1] = biological target: Sfp, phosphopantetheinyl transferase of Bacillus subtilis subsp. spizizenii ATCC6633 (Bacillus subtilis subsp. spizizenii ATCC6633); test: cell-based or functional assay
# [2] = biological target: PcpS, phosphopantetheinyl transferase of Pseudomonas aeruginosa PAO1 (Pseudomonas aeruginosa PAO1); test: cell-based or functional assay
# [3] = biological target: PP1183, putative phosphopantetheinyl transferase of Pseudomonas putida KT2440 (Pseudomonas putida KT2440); test: cell-based or functional assay
# PP1183 = PP1183 (Pseudomonas putida, UniProt Q88NM4); test: Carrier protein (CoA) competition assay with PP1183; type: biochemical, P. putida KT2440; conditions: competition with BpsA for limited CoA (250 nM), read-out: IC50 for carrier protein mediated inhibition of BpsA activation
# Description: as §1, §2
# Chain of Sfp (G4NQW2 entry or part of it): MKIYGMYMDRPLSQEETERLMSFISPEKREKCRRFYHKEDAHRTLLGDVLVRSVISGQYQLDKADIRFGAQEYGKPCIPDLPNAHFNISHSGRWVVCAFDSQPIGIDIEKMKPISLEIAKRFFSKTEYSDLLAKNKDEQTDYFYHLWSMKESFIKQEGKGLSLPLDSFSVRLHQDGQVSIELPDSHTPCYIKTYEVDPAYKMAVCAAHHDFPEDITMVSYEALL
# Chain of PcpS (Q9I4H2 entry or part of it): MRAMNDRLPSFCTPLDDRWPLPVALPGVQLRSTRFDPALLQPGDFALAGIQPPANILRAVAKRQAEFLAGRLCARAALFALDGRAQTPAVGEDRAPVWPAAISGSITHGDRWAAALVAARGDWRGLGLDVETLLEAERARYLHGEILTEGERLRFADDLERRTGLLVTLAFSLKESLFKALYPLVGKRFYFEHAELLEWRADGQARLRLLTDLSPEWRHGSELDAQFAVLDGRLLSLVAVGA
# Chain of PP1183 (Q88NM4 entry or part of it): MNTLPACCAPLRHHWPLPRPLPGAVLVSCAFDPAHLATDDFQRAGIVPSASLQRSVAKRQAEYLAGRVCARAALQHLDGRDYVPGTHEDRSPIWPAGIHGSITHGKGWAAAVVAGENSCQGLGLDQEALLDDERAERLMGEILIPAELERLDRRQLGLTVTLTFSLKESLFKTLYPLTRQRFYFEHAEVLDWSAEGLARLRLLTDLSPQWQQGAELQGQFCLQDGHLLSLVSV
molecule,measurement,setting,value
B1,IC50,PcpS,710 nM
same,IC50,Sfp,720 nM
same,IC50 (carrier protein competition with BpsA for limiting CoA),[1],0.72 µM
same,kcat/Km (estimate derived from IC50) (Min^-1 · µM^-1),[1],0.69
same,IC50 (carrier protein competition with BpsA for limiting CoA),[2],0.71 µM
same,kcat/Km (estimate derived from IC50) (Min^-1 · µM^-1),[2],7.77
same,IC50 (carrier protein competition with BpsA for limiting CoA),[3],0.3 µM
same,kcat/Km (estimate derived from IC50) (Min^-1 · µM^-1),[3],3.88
same,IC50,PP1183,300 nM
